Measurements published in patent US20250250357A1 (NANJING ZAIMING PHARMACEUTICAL, published 2025).
Values belong to the binder of their own block, whether it stands above or below them.

Legend:
[1] = target: T1, human MSLN-R2-his protein (human, UniProt Q13421 391-486); assay: ELISA on coated MSLN-R2; antibody 0.01 nM
T1 construct: Region 2 of human mesothelin, made in HEK293E cells, His-tagged; also called human MSLN-R2 protein; hMSLN-R2-his; not shown: His tag

[2] = target: T2, human MSLN-R3-his protein (human, UniProt Q13421 487-598); assay: ELISA on coated MSLN-R3; antibody 100 nM
T2 construct: Region 3 of human mesothelin, made in HEK293E cells, His-tagged; also called human MSLN-R3 protein; hMSLN-R3-his; not shown: His tag
T2 sequence (Q13421 495-606): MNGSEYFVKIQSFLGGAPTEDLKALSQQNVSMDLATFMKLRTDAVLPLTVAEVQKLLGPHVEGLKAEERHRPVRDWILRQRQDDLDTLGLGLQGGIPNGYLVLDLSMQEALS

[3] = target: T1, human MSLN-R2-his protein; assay: ELISA on coated MSLN-R2; antibody 10 nM
[4] = target: T2, human MSLN-R3-his protein; assay: ELISA on coated MSLN-R3; antibody 0.001 nM
Experimental: (§1) The plate was sealed with a plastic film and incubated at 4° C. overnight. The next day, the plate was washed twice with PBST, and a blocking buffer [PBS+2% (w/w) BSA] was added for blocking at room temperature for 2 h. The blocking buffer was discarded, and a chimeric antibody or negative control antibody serially diluted from 100 nM was added at 50 μL/well. After incubation at 37° C. for 2 h, the plate was washed 3 times with PBST. […] After incubation at 37° C. for 2 h, the plate was washed 5 times with PBST. A TMB substrate was added at 50 μL/well for incubation at room temperature for 5-10 min, and then a stop solution (1.0 N HCl) was added at 50 μL/well.

[5] = target: T2, human MSLN-R3-his protein; assay: ELISA on coated MSLN-R3; antibody 0.0001 nM
[6] = target: T2, human MSLN-R3-his protein; assay: ELISA on coated MSLN-R3; antibody 0.1 nM
[7] = target: T1, human MSLN-R2-his protein; assay: ELISA on coated MSLN-R2; antibody 1 nM
Experimental: as §1

[8] = target: T2, human MSLN-R3-his protein; assay: ELISA on coated MSLN-R3; antibody 0.01 nM
Experimental: as §1

[9] = target: T1, human MSLN-R2-his protein; assay: ELISA on coated MSLN-R2; no antibody (blank)
[10] = target: T2, human MSLN-R3-his protein; assay: ELISA on coated MSLN-R3; antibody 10 nM
[11] = target: T1, human MSLN-R2-his protein; assay: ELISA on coated MSLN-R2; antibody 0.0001 nM
Experimental: as §1

[12] = target: T1, human MSLN-R2-his protein; assay: ELISA on coated MSLN-R2; antibody 100 nM
[13] = target: T2, human MSLN-R3-his protein; assay: ELISA on coated MSLN-R3; no antibody (blank)
[14] = target: T2, human MSLN-R3-his protein; assay: ELISA on coated MSLN-R3; antibody 1 nM
Experimental: as §1

[15] = target: T1, human MSLN-R2-his protein; assay: ELISA on coated MSLN-R2; antibody 0.001 nM
[16] = target: T1, human MSLN-R2-his protein; assay: ELISA on coated MSLN-R2; antibody 0.1 nM
[17] = target: T3, human MSLN-R1-his protein (human, UniProt Q13421 296-390); assay: ELISA on coated MSLN-R1; antibody 0.0001 nM
T3 construct: Region 1 of human mesothelin, made in HEK293E cells, His-tagged; also called human MSLN-R1 protein; hMSLN-R1-his; not shown: His tag
T3 chain: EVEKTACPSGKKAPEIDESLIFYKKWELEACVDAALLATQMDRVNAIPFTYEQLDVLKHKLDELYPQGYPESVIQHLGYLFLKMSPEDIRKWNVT

[18] = target: T3, human MSLN-R1-his protein; assay: ELISA on coated MSLN-R1; antibody 0.001 nM
[19] = target: T3, human MSLN-R1-his protein; assay: ELISA on coated MSLN-R1; antibody 0.01 nM
[20] = target: T3, human MSLN-R1-his protein; assay: ELISA on coated MSLN-R1; antibody 1 nM
[21] = target: T3, human MSLN-R1-his protein; assay: ELISA on coated MSLN-R1; antibody 100 nM
[22] = target: T3, human MSLN-R1-his protein; assay: ELISA on coated MSLN-R1; no antibody (blank)
Experimental: as §1

[23] = target: T3, human MSLN-R1-his protein; assay: ELISA on coated MSLN-R1; antibody 0.1 nM
[24] = target: T3, human MSLN-R1-his protein; assay: ELISA on coated MSLN-R1; antibody 10 nM

T1 sequence (Q13421 other isoform, or with tags, fused parts or gaps): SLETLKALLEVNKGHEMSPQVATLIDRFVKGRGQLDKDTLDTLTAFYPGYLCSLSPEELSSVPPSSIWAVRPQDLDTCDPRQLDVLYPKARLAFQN

B3: S009-F8-4.5 (antibody, human IgG1, kappa, V domains shown)
VH: QVQLQQPGAELVKPGASVKLSCKASGYTFTIYWMHWVKQRPGQGLEWIGMIHPNSGNTNYNEKFKSKATLTVDKSSSTAYMQLSSLTSEDSAVYYCSLIHWYFDVWGTGTTVTVSS
VL: QIVLTQSPAIMSASPGEKVTMTCSASSSVSYMYWYQQKPGSSPRLLIYDTSNLASGVPVRFSGSGSGTSYSLTISRMEAEDAATYYCQQWSSYPLTFGAGTKLELKR
OD450 [1]: 0.05 OD450
OD450 [17]: 0.05 OD450
OD450 [2]: 0.12 OD450
OD450 [3]: 0.06 OD450
OD450 [18]: 0.05 OD450
OD450 [19]: 0.05 OD450
OD450 [4]: 0.05 OD450
OD450 [5]: 0.05 OD450
OD450 [20]: 0.05 OD450
OD450 [6]: 0.05 OD450
OD450 [7]: 0.05 OD450
OD450 [21]: 0.24 OD450
OD450 [22]: 0.05 OD450
OD450 [8]: 0.04 OD450
OD450 [9]: 0.05 OD450
OD450 [10]: 0.07 OD450
OD450 [11]: 0.05 OD450
OD450 [23]: 0.05 OD450
OD450 [12]: 0.08 OD450
OD450 [13]: 0.06 OD450
OD450 [24]: 0.09 OD450
OD450 [14]: 0.05 OD450
OD450 [15]: 0.05 OD450
OD450 [16]: 0.05 OD450

B5: S009-F8-5.15 (antibody, human IgG1, kappa, V domains shown)
VH: QVQLQQPGTELVKPGASVKLSCKASGYTFTSYWMHWVKQRPGQGLEWIGHSNPSNGGTNYNEKFKSKATLTVDKSSSTAYMQLSSLTSEDSAVYYCARWVRGSNYEYFDVWGTGTTVTVSS
VL: DIVMTQSQKFMSTTVGDRVSIICKASQNVGSAVAWCQQKPGQSPKLLIYSASNRYTGVPDRFTGSGSGTDFTLTISNMQSEDLADYFCQQYSSYPLTFAGGTKLEIKR
OD450 [1]: 0.04 OD450
OD450 [17]: 0.04 OD450
OD450 [2]: 0.06 OD450
OD450 [3]: 0.05 OD450
OD450 [18]: 0.05 OD450
OD450 [19]: 0.05 OD450
OD450 [4]: 0.05 OD450
OD450 [5]: 0.04 OD450
OD450 [20]: 0.68 OD450
OD450 [6]: 0.04 OD450
OD450 [7]: 0.04 OD450
OD450 [21]: 2.29 OD450
OD450 [22]: 0.05 OD450
OD450 [8]: 0.04 OD450
OD450 [9]: 0.05 OD450
OD450 [10]: 0.05 OD450
OD450 [11]: 0.05 OD450
OD450 [23]: 0.12 OD450
OD450 [12]: 0.05 OD450
OD450 [13]: 0.05 OD450
OD450 [24]: 1.65 OD450
OD450 [14]: 0.04 OD450
OD450 [15]: 0.05 OD450
OD450 [16]: 0.04 OD450

B6: S009-F8-8.22 (antibody, human IgG1, kappa, V domains shown)
VH: EVQLQQSGPELVKPGASVKMSCKASGYTFTDYIIHWVKQSHGKSLEWIAYIFPNNGGTGYNQKFRGKATLTVNKSSSTAYMELRSLTSEDSAVYYCARWRLRQYFDVWGTGTTVTVSS
VL: DIVMTQSQKFMSTIVGDRVSITCKASQNVGTAVAWYQQKPGQSPKLLIYSASNRYTGVPDRFTGSGSGTDFTLTISNMQSEDLADYFCQQYSSYPLTFGGGTKLEIKR
OD450 [1]: 0.04 OD450
OD450 [17]: 0.08 OD450
OD450 [2]: 0.15 OD450
OD450 [3]: 0.05 OD450
OD450 [18]: 0.16 OD450
OD450 [19]: 0.61 OD450
OD450 [4]: 0.04 OD450
OD450 [5]: 0.04 OD450
OD450 [20]: 2.46 OD450
OD450 [6]: 0.04 OD450
OD450 [7]: 0.04 OD450
OD450 [21]: 2.63 OD450
OD450 [22]: 0.06 OD450
OD450 [8]: 0.04 OD450
OD450 [9]: 0.04 OD450
OD450 [10]: 0.08 OD450
OD450 [11]: 0.05 OD450
OD450 [23]: 1.78 OD450
OD450 [12]: 0.09 OD450
OD450 [13]: 0.04 OD450
OD450 [24]: 2.63 OD450
OD450 [14]: 0.05 OD450
OD450 [15]: 0.05 OD450
OD450 [16]: 0.04 OD450

Results, then the binder that gave them:

OD450 [1]: 0.04 OD450
OD450 [2]: 2.28 OD450
OD450 [3]: 0.06 OD450
OD450 [4]: 0.14 OD450
OD450 [5]: 0.09 OD450
OD450 [6]: 1.38 OD450
OD450 [7]: 0.04 OD450
OD450 [8]: 0.52 OD450
OD450 [9]: 0.04 OD450
OD450 [10]: 1.81 OD450
OD450 [11]: 0.04 OD450
OD450 [12]: 0.22 OD450
OD450 [13]: 0.04 OD450
OD450 [14]: 1.99 OD450
OD450 [15]: 0.04 OD450
OD450 [16]: 0.04 OD450
B1: Tab106 (YP218, hIgG1) (antibody, V domains shown)
VH: QQQLEESGGGLVKPEGSLTLTCKASGFDLGFYFYACWVRQAPGKGLEWIACIYTAGSGSTYYASWAKGRFTISKASSTTVTLQMTSLAAADTATYFCARSTANTRSTYYLNLWGPGTLVTVSS
VL: DVVMTQTPASVSEPVGGTVTIKCQASQRISSYLSWYQQKPGQRPKLLIFGASTLASGVPSRFKGSGSGTEYTLTISDLECADAATYYCQSYAYFDSNNWHAFGGGTEVVVRT
notes: also called YP218 human IgG1 antibody

OD450 [1]: 0.05 OD450
OD450 [17]: 0.32 OD450
OD450 [2]: 0.2 OD450
OD450 [3]: 0.07 OD450
OD450 [18]: 0.52 OD450
OD450 [19]: 1.18 OD450
OD450 [4]: 0.05 OD450
OD450 [5]: 0.04 OD450
OD450 [20]: 2.06 OD450
OD450 [6]: 0.05 OD450
OD450 [7]: 0.05 OD450
OD450 [21]: 2.17 OD450
OD450 [22]: 0.05 OD450
OD450 [8]: 0.04 OD450
OD450 [9]: 0.05 OD450
OD450 [10]: 0.1 OD450
OD450 [11]: 0.04 OD450
OD450 [23]: 1.97 OD450
OD450 [12]: 0.15 OD450
OD450 [13]: 0.05 OD450
OD450 [24]: 2.16 OD450
OD450 [14]: 0.06 OD450
OD450 [15]: 0.04 OD450
OD450 [16]: 0.05 OD450
B2: S009-F8-12.13 (antibody, human IgG1, kappa, V domains shown)
VH: QVQLQQPGAELVKPGASVKLSCKASGYTFTSYWMHWVKQRPGQGLEWIGMIHPNSGSTNYNEKFKSKATLTVDKSSSTAYMQLSSLTSEDSAVYYCARRTPIITLVGHWYFDVWGTGTTVTVSS
VL: DIVMTQSHKFMSTSVGDRVSITCKASQDVGTAVAWYQQKPGQSPKLLIYWASTRHTGVPDRFTGSGSGTDFTLTISNVQSEDLADYFCQQYSSYPLTFGAGTKLELKR

OD450 [1]: 0.04 OD450
OD450 [17]: 0.04 OD450
OD450 [2]: 2.4 OD450
OD450 [3]: 0.05 OD450
OD450 [18]: 0.04 OD450
OD450 [19]: 0.04 OD450
OD450 [4]: 0.11 OD450
OD450 [5]: 0.06 OD450
OD450 [20]: 0.04 OD450
OD450 [6]: 1.38 OD450
OD450 [7]: 0.04 OD450
OD450 [21]: 0.09 OD450
OD450 [22]: 0.04 OD450
OD450 [8]: 0.5 OD450
OD450 [9]: 0.05 OD450
OD450 [10]: 2.03 OD450
OD450 [11]: 0.04 OD450
OD450 [23]: 0.04 OD450
OD450 [12]: 0.07 OD450
OD450 [13]: 0.03 OD450
OD450 [24]: 0.05 OD450
OD450 [14]: 2.23 OD450
OD450 [15]: 0.04 OD450
OD450 [16]: 0.04 OD450
B4: S009-F8-9.16 (antibody, human IgG1, kappa, V domains shown)
VH: EVHLQQSGPVLVKPGASVKMSCKASGYTFTDYFMNWVKQSHGKSLEWIGVINPHNGYVNYNQKFQGRATLTVDKSSSTVYMELNSLTSEDSAVYHCARSAESAWFAYWGQRTLVTVSA
VL: DVLMTQTPLSLPVSLGDQVSISCRSSQSIVHVKGNTYLEWYLQKPGQSPELLIYKVSNRFSGVPDRFSGGGSGTDFTLKISRVEPEDLGVYYCFQGSHLPYTFGGGTKLEIKR
